{"source": "patent US20110059142A1", "about": "“ENCAPSULATION OF BIOLOGICALLY ACTIVE AGENTS” (priority 2008, published 2011)", "assay": "In vivo evaluation of HIP-PBCA nanoparticle delivery of dalargin to the brain, intravenous", "settings": "mouse, i.v., 20 minutes following injection, LC-MS-MS", "experimental": "The ability of the HIP-PBCA nanoparticles to deliver their peptide load to the brain was determined in vivo in the mouse model. HIP-PBCA nanoparticles containing encapsulated dalargin using the HIP process were compared to HIP-PBCA nanoparticles that had had the peptide adsorbed onto the particle surface as reported by Kreuter et al. The nanoparticles were prepared for brain delivery via the intravenous route by coating their surface with polysorbate 80 surfactant. Briefly, the nanoparticles were incubated in PBS containing 1% w/v surfactant for 30 minutes prior to injection. The surfactant has been reported in the literature to indirectly target the nanoparticles to the brain by promoting adsorption of serum apolipoproteins onto the nanoparticle surface. This allows the particles to bind to the apolipoprotein receptor on the blood brain barrier and transcytose to reach the brain. The following formulations were compared: • 1. HIP-PBCA nanoparticles alone (5:1 HIP content) • 2. HIP-PBCA nanoparticles alone (10:1 HIP content) • 3. Dalargin in solution (2.0 mg/kg) • 4. HIP-PBCA nanoparticles with dalargin adsorbed onto the surface (2.0 mg/kg total dose used in formulation) • 5. […]\nThe mice were sacrificed at 20 minutes following injection, and the brains and blood samples collected and analysed for the presence of peptide by LC-MS-MS. […]"}
{"substance": "dalargin (YAGFLR; Humanised sequence of mus musculus and homo sapiens) [9: YAGFLR]", "values": [{"measurement": "Dalargin levels in the brain (detectability)", "result": "detectable in the brain only when encapsulated within the particles using the HIP process"}]}
